Results taken from article PMC3631186.

Key:
[1] = molecular target: C-terminal domain (CTD) of BMJ4 p24 (HIV-1 strain BMJ4 (subtype C)); test: non-reducing SDS-PAGE; C-terminal domain of BMJ4 p24 in non-reducing condition
[2] = molecular target: HIV-1 p24 capsid protein from the BMJ4 strain (recombinant, full-length) (HIV-1 strain BMJ4 (subtype C)); test: non-reducing SDS-PAGE; recombinant p24 proteins; loading buffer with 0.1% SDS, no BME, sample not boiled; called native gel in the text
[3] = molecular target: HIV-1 p24 capsid protein from the BMJ4 strain (recombinant, full-length) (HIV-1 strain BMJ4 (subtype C)); test: crystal structure
[4] = molecular target: HIV-1 p24 capsid protein from the BMJ4 strain (recombinant, full-length) (HIV-1 strain BMJ4 (subtype C)); test: SEC; analytic gel filtration, G5000PWxl column in phosphate-buffered saline pH 7.4, 0.5 ml/min, Agilent1200 HPLC
[5] = molecular target: HIV-1 p24 capsid protein from the BMJ4 strain (recombinant, full-length) (HIV-1 strain BMJ4 (subtype C)); test: AUC; sedimentation velocity, 0.9 mg/ml in phosphate-buffered saline pH 7.4, 20°C, 45,000 rpm; c(s) scaled to c(M)
[6] = molecular target: p24 of HIV-1 MJ4 virus (from the infectious clone) (HIV-1 strain BMJ4 (subtype C)); test: non-reducing SDS-PAGE

C-terminal domain (CTD) of BMJ4 p24 (domain or fragment)
stoichiometry N [1]: 2

HIV-1 p24 capsid protein from the BMJ4 strain (recombinant, full-length) (natural protein)
stoichiometry N [2]: 2
stoichiometry N [3]: 2
stoichiometry N [4]: 2
stoichiometry N [5]: 2

p24 of HIV-1 MJ4 virus (from the infectious clone) (natural protein)
stoichiometry N [6]: 2
